The results in this text go back to US20250195637A1.

The target of assay [1] is Wild-type F protein from the hMPV strain rC-85473 (human metapneumovirus (hMPV), strain rC-85473) (UniProt Q6WB98). Put plainly: flow cytometry, HMPV24-A647 on LLC-MK2 cells infected with rC-85473. For orientation: Flow cytometry measures light scatter and fluorescence of single cells or particles in a stream.
Assay [2] has the same target. In words: flow cytometry, HMPV24-A647 on LLC-MK2 cells infected with Bivalent Metavac®-RSV v.1.
Assay [3] shares this target. Put plainly: flow cytometry, HMPV24-A647 on LLC-MK2 cells infected with Bivalent Metavac®-RSV v.2.
Assay [4] has the same target. In words: flow cytometry, HMPV24-A647 on LLC-MK2 cells infected with Bivalent Metavac®-RSV v.3.
The target of assay [5] is F RSV v.1, native (wild-type) F protein of hRSV, RSV A2 strain (human respiratory syncytial virus (hRSV), RSV A2 strain) (UniProt P03420). Put plainly: flow cytometry, Palivizumab-PE on LLC-MK2 cells infected with Bivalent Metavac®-RSV v.1.
Assay [6] deals with F RSV v.2, mutated F protein from hRSV corresponding to the stabilized prefusion state (human respiratory syncytial virus (hRSV), RSV A2 strain, mutated) (UniProt P03420). Put plainly: flow cytometry, Palivizumab-PE on LLC-MK2 cells infected with Bivalent Metavac®-RSV v.2.
Assay [7] deals with F RSV v.3, chimeric HMPV/RSV stabilized F pre-fusion form (mutated extracellular domain of F protein from hRSV with transmembrane and cytoplasmic domains of F protein from hMPV C-85473) (chimera of hRSV (RSV A2 strain, mutated) and hMPV (C-85473)). Put plainly: flow cytometry, Palivizumab-PE on LLC-MK2 cells infected with Bivalent Metavac®-RSV v.3.

With “Monoclonal mouse antibody detecting the F HMPV protein (MAb HMPV24 BioRad MCA 4674)”, the Infected cells expressing HMPV-F [%, GFP and A647 positive cells] in assay [1] turned out to be 98.9%; in assay [2] it was 94.8%; in assay [3], 94.8%; in assay [4], 85.2%.
With “Palivizumab Synagis® AstraZeneca, monoclonal humanized antibody detecting both pre-fusion and post-fusion forms of the F RSV protein”, the Infected cells expressing RSV-F [%, GFP and PE positive cells] worked out at 65.5% in assay [5], 54.6% in assay [6] and 47.2% in assay [7].
